Substrate in the data set: N[C@@H](CCC(=O)N[C@H](CSc1ccc([N+](=O)[O-])cc1[N+](=O)[O-])C(=O)NCC(=O)O)C(=O)O
The experiment in a line: TP_TRANSPORTER: uptake in membrane vesicle from Mrp2-expressing NIH/3T3 cell. It counts as functional, cell membranes, NIH3T3.

B1: ATP-binding cassette sub-family C member 2 (Rattus norvegicus) (protein)
chain: MDKFCNSTFWDLSLLESPEADLPLCFEQTVLVWIPLGFLWLLAPWQLYSVYRSRTKRSSITKFYLAKQVFVVFLLILAAIDLSLALTEDTGQATVPPVRYTNPILYLCTWLLVLAVQHSRQWCVRKNSWFLSLFWILSVLCGVFQFQTLIRALLKDSKSNMAYSYLFFVSYGFQIVLLILTAFSGPSDSTQTPSVTASFLSSITFSWYDRTVLKGYKHPLTLEDVWDIDEGFKTRSVTSKFEAAMTKDLQKARQAFQRRLQKSQRKPEATLHGLNKKQSQSQDVLVLEEAKKKSEKTTKDYPKSWLIKSLFKTFHVVILKSFILKLIHDLLVFLNPQLLKLLIGFVKSSNSYVWFGYICAILMFAVTLIQSFCLQSYFQHCFVLGMCVRTTVMSSIYKKALTLSNLARKQYTIGETVNLMSVDSQKLMDATNYMQLVWSSVIQITLSIFFLWRELGPSILAGVGVMVLLIPVNGVLATKIRNIQVQNMKNKDKRLKIMNEILSGIKILKYFAWEPSFQEQVQGIRKKELKNLLRFGQLQSLLIFILQITPILVSVVTFSVYVLVDSANVLNAEKAFTSITLFNILRFPLSMLPMVTSSILQASVSVDRLERYLGGDDLDTSAIRRVSNFDKAVKFSEASFTWDPDLEATIQDVNLDIKPGQLVAVVGTVGSGKSSLVSAMLGEMENVHGHITIQGSTAYVPQQSWIQNGTIKDNILFGSEYNEKKYQQVLKACALLPDLEILPGGDMAEIGEKGINLSGGQKQRVSLARAAYQDADIYILDDPLSAVDAHVGKHIFNKVVGPNGLLAGKTRIFVTHGIHFLPQVDEIVVLGKGTILEKGSYRDLLDKKGVFARNWKTFMKHSGPEGEATVNNDSEAEDDDDGLIPTMEEIPEDAASLAMRRENSLRRTLSRSSRSSSRRGKSLKNSLKIKNVNVLKEKEKEVEGQKLIKKEFVETGKVKFSIYLKYLQAVGWWSILFIILFYGLNNVAFIGSNLWLSAWTSDSDNLNGTNNSSSHRDMRIGVFGALGLAQGICLLISTLWSIYACRNASKALHGQLLTNILRAPMRFFDTTPTGRIVNRFSGDISTVDDLLPQTLRSWMMCFFGIAGTLVMICMATPVFAIIIIPLSILYISVQVFYVATSRQLRRLDSVTKSPIYSHFSETVTGLPIIRAFEHQQRFLAWNEKQIDINQKCVFSWITSNRWLAIRLELVGNLVVFCSALLLVIYRKTLTGDVVGFVLSNALNITQTLNWLVRMTSEAETNIVAVERISEYINVENEAPWVTDKRPPADWPRHGEIQFNNYQVRYRPELDLVLKGITCNIKSGEKVGVVGRTGAGKSSLTNCLFRILESAGGQIIIDGIDVASIGLHDLRERLTIIPQDPILFSGSLRMNLDPFNKYSDEEVWRALELAHLRSFVSGLQLGLLSEVTEGGDNLSIGQRQLLCLGRAVLRKSKILVLDEATAAVDLETDSLIQTTIRKEFSQCTVITIAHRLHTIMDSDKIMVLDNGKIVEYGSPEELLSNRGSFYLMAKEAGIENVNHTEL
As a reminder, the Km is the substrate concentration at which the rate is half of its maximum. As for B1, the Michaelis-Menten constant (Km) was found to be 0.175 µM.

(Values after ChEMBL document CHEMBL2074002, “Functional analysis of a canalicular multispecific organic anion transporter cloned from rat liver” (J Biol Chem, 1998).)
